Among the data in publication PMC8825798 (Communications Biology, 2022) are Kd, koff and kon values, retold here.

Holding throughout (test): BLI
What all share (details): both partners purified

Test [1] has as its target T1, spike hepta-peptide Thr1273 → Glu (SARS-CoV-2, Thr^1273 → Glu (stands in the printed letters)).
T1 peptide: GVKLHYE

Test [2] addresses T2, spike hepta-peptide Thr1273 → Arg (SARS-CoV-2, Arg^1273 (stands in the printed letters)).
T2 peptide: GVKLHYR

Test [3] addresses T3, spike hepta-peptide Tyr1272 → Ala (1267Gly-Val-Lys-Leu-His-Ala-Thr1273) (SARS-CoV-2, Tyr^1272 → Ala (stands in the printed letters)).
T3 peptide: GVKLHAT

In test [4] the target is T4, spike hepta-peptide Thr1273 → Gln (SARS-CoV-2, Gln^1273 (stands in the printed letters)).
T4 peptide: GVKLHYQ

Test [5] has as its target T5, spike hepta-peptide Thr1273 → Val (SARS-CoV-2, Thr^1273 → Val (stands in the printed letters)).
T5 peptide: GVKLHYV

Test [6] addresses T6, spike hepta-peptide Thr1273 → Ala (1267Gly-Val-Lys-Leu-His-Tyr-Ala1273) (SARS-CoV-2, Thr^1273 → Ala (stands in the printed letters)).
T6 peptide: GVKLHYA

Several values for one entry are separate records, joined by “and”; a condition that tells them apart may be missing. Equal values may be shown once.

B1: αCOPI-WD40 domain (residues 1-327) from Schizosaccharomyces pombe (domain or fragment)
chain: MEMLTKFESRSSRAKGVAFHPTQPWILTSLHNGRIQLWDYRMGTLLDRFDGHDGPVRGIAFHPTQPLFVSGGDDYKVNVWNYKSRKLLFSLCGHMDYVRVCTFHHEYPWILSCSDDQTIRIWNWQSRNCIAILTGHSHYVMCAAFHPSEDLIVSASLDQTVRVWDISGLRMKNAAPVSMSKEDQKAQAHNSKSNDKKGSTDAIVKFVLEGHDRGVNWCAFHPTLPLILSAGDDRLVKLWRMTASKAWEVDTCRGHFNNVSCCLFHPHQELILSASEDKTIRVWDLNRRTAVQTFRRDNDRFWFITVHPKLNLFAAAHDSGVMVFKLE
As a reminder, the Kd is the constant that tells how readily two partners part at equilibrium. A low value points to higher affinity. By koff is commonly meant the first-order rate constant of dissociation. A low value points to a long-lived complex. As usually defined, the kon is a measure of how fast the partners come together. Read a high kon as faster complex formation. With B1, the Kd is 310 nM and 380 nM in test [1]; 1730 nM and 1290 nM in test [2]; 3770 nM and 2320 nM in test [3]; 780 nM and 1150 nM in test [4]; 3200 nM and 2060 nM in test [5]; 1130 nM and 1140 nM in test [6]. For the same molecule, the koff in test [1] was determined as 0.024 s⁻¹; in test [2] it was 0.177 s⁻¹; in test [3], 0.28 s⁻¹; in test [4], 0.066 s⁻¹; in test [5] it was 0.212 s⁻¹; in test [6] it was 0.076 s⁻¹. Further, the kon in test [1] came to 59000 M⁻¹ s⁻¹; in test [2], 57600 M⁻¹ s⁻¹; in test [3], 121000 M⁻¹ s⁻¹; in test [4], 60000 M⁻¹ s⁻¹; in test [5], 103000 M⁻¹ s⁻¹; in test [6], 66700 M⁻¹ s⁻¹.
